Measurements: the nanobody polyreactivity screen of Harvey et al. (2022)

Assay: yeast display, Sf9 membrane polyspecificity reagent, FACS + sequencing; frameworks hold sequencing errors
How it was run: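 Genes from sorted yeast were amplified by colony PCR, read by MiSeq 2 × 250 sequencing and filtered on CDR length. These cells carried a synthetic nanobody library in Saccharomyces cerevisiae BJ5465 and were sorted by FACS into low and high (top ~1%) gates on anti-HA and streptavidin fluorescence. Polyreactivity is labelled according to the gate of origin.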

Sequence	polyreactivity (PSR sort gate)
QVQLVESGGGLVQAGGSLRLTCAASGRIFAVYAMGWYRQAPGKERELVATISSSGSTHYADSVKGRFTISRDNAKNTVYLQMNSLKPEDTAVYYCNAGGSELKLGHDYWGQGTQVTVSS	low polyreactivity
QVQLVESGGGLVQAGGSLRLSCAASGSIFLAYDMGWYRQAPGKERELVAAISYTGGSTNYADSVKGRFTISRDNAKNTVYLQMNSLKPEDTAVYYCNTAGDLWIDYGYWGQGTQVTVSS	low polyreactivity
QVQLVESGGGLVQAGGSLRLSCAASGSIFGYNVMGWYRQAPGKERELVAGITSGGSTNYADSVKGRFTISRDNAKNTVYVQMNSLKPEDTAVYYCNAEGVFGDGRSGFYWYDYWGQGTQVTVSS	low polyreactivity
QVQLVESGGGLVQAGGSLRLSCAASGSTFYIYAMGWYRQAPGKERELVAAITEGGGITYYADSVKGRFTISRDNAKNTVYLQMISLKPEDTAVYYCADVWGYYVLPYDYWGQGTQVTVSS	low polyreactivity
QVQLVESGGGLVQAGGSLRLSCAASGRTFGVYAMGWYRQAPGKERELVAGIRWRGGSTYYADSVKGRFTISRDNAKNTVYLQMNSLKPEDTAVYYCAADVYLVKYDYWGQCTQVTVSS	low polyreactivity
QFQHVESGGCLVQAGGSLRLSSAASGYMFYWYDMGWYRQAPGKERELVAVITSSGLSTYYADSVKGRFTISRDNAKNTVYLQMNSLKPEDTAVYYCNKANTQYSYYFYDYWGQGTQVTVSS	low polyreactivity
QVQLVESGGGLVQAGGSLRLSCAASGSTFWFYAMGWYRQAPGKERELVAAITSSGSSTYYADSVKGRFTISRDNAKNTVYLQMNCLKPEDTAVYYCAADDSNDSPSLYYVAYNYWGQGTQVTVSS	low polyreactivity
QVQLVESRGGLVQAGGSLRLSCAASVSTFSDYSIGWYRQATGKERELVAGITGGGGTYYADSVKGRFTISRDNAKNTVYLQMNSLKPEDTAVYYCAAGRRHGFGYWGQGTQVTVSS	low polyreactivity
QDQHVESGGGLVQAGGSLRLICAASGLIFGYYAIGWYRLAPGKERELVAAITSDSSTNYADSVKGRFTISRDNAKNTVYLHMNSLKPVDTAVYYCAADIMTRRGYYYWGHGTQVTVSS	high polyreactivity
QVQLVESGGGLVQAGGSLRLICAASGLTFTKYAMGWYRQAPGKERELVATITSGGSTNYADSVKGRFTISRDNAKNTVYLQMNSLKPEDTAVYYCNRDNYKWPYWEFDYWGQGTQVTVSS	high polyreactivity
QVQLVESGGGLVQAGGSLRLSCAASGRTFFFNAMGWYRQAPGIERELVATISWNGGDTYYADSVKGRFTISRDNAKNTVYLQMNSLKPEDTAVYDCNARVLWGQGTQVTVSS	high polyreactivity
QVQLVESGGGLVQAGGSLRLSCAASGFTFYRNAMRWYRQAPGKERELVAAISRGGRTYYADSVKGRFTISRDNAKNTVYLQMNSLKPEDTAVYYCARKYTRKIPASDYWGQGTQVTVSS	high polyreactivity
QVQLVESGGGLVQAGGSLRLSCAASGRTFGYNAMGWYRHAPGKERELVAAISSSGGSTYYADSVKGRFTISRDNAKNTVYLQMNSLKPEDTEVYYCATQGYSWAHGSDYWGQGTQVTVSS	low polyreactivity
QVQLVESGGGLVQAGGSLRLSCAASGITFKYTAMGWYRQAPGKERELVAAISRRGGRTYYADSVKGRFTISRDNAKNTVYLQMNSLKPEDTAVYYCNVETWSVGGREYDYWGQGTQVTVSS	high polyreactivity
QDQLVESGGGLVQAGGSLRLSCAASGIIFARYAMGWSRPAPGKERELVAAITSGGGSTYYADSVKGRFTISRDNAMNTVYLQMYSLKPEDTAVYYCAADYQTIGWGYDYWGQGTQVTVSS	low polyreactivity
QVQLVESGGGLVQAGGSLRLSCAASGYTFPSYALGWYRQAPGKERELVAVITIGGTYYADSVKGRFTISRDNAKNTVYLQMNSLKPEDTAVYYCAADWAWDYYRGFDYLGQGTQVTVSS	low polyreactivity
QVQLVESGGGLVQAGGSLRLSCAASGSIFPSYSMGWYRQAPGKERELVAVISVSGGRTYYADSVKGRFTISRDNAKNTVYLQMKSLKPEDTAVYYCAKDRPQEYDYWGQGTQVTVSS	low polyreactivity
QDQLVESGGGLVQAGGSLLLSCAASGLTVGRYAMGWYRQAPGKERELVAVINGSGGNTYYADSVKGRFTISRDHATNTVYLQMHSLKPEDTAVYYCNVDDWGQGTQVTVSS	low polyreactivity
QVQLVESGGGLVQAGGSLRLSCAASGFTFYTNAMGWYRQAPGKEREFVAAISWSGTGTYYADSVKGRFTISRDNAKNTVYLQMNSLKPEDTAVYYCAARDRWRGGRKFDYWGQGTQVTVSS	high polyreactivity
QVQLVESGGGLVQAGGSLRLSCAASGFTFGYYAMGWYRQAPGKERELVAAINWSGDSTYYADSVKGRFTISRDNAKNTVYLQMNSLKPEDTAVYYCNAVIEDLPYDYWGQGTQVTVSS	low polyreactivity
QVQLVESGGGLVQAGGSLRLSCAASGRIFPRYALGGYRQAPGKERELVAGISRSGGSTYYADSVKGRFTISRDNAKNTVYLQMNSLKPEDTAVYYCNTGGHYGARKYDYWGQGTQVTVSS	low polyreactivity
QVQLVESGGGLVQAGGSLRLSCAASGITFYYYAMGWYRQAPGKERELVASISQSGGSTYYAASVKGRFSISRDNAKNTVYLQMNSLKPEDTAVYYCAADPGRYYPMYYWGQGTQVTVSS	low polyreactivity
